For the data set, the system named is MS2 coat protein. Briefly: apparent KD of MS2 coat protein; designed switch direction (-1 OFF switch, 1 ON switch): 1; higher = weaker reporter binding. A digest of the protocol: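 Stalled E. coli RNA polymerase transcribed designed RNA switches on Illumina chips, which were then titrated with SNAP-549-labelled MS2 coat protein, doubling from 0.7 or 1.5 nM to 3 µM. Steps lasted from 0.8–1.5 h at the lowest concentration to 10–20 min at the highest. The apparent KD is each design's median over clusters of curve-fitted normalised fluorescence.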

The mark [1] stands for this setting: Eterna round: R95, input ligand: FMN 200 uM.
Setting [2] is: Eterna round: R95, input ligand: microRNA oligo, concentration not stated.
[3] abbreviates: Eterna round: R95, input ligand: none.
Where [4] appears, read: input ligand: microRNA oligo, concentration not stated.

In the case of “UCUUGGUUUUUGCUCGUUUUUUGUGUUGAACAUGAGGAUCACCCAUGUAUUGUACGGUCCAAUUUAGUGGUAAUCCG [JMF 66] (puzzle: Sensor for hsa-mir-208a)”, the “apparent KD of MS2 coat protein” value amounted to 0.0451 µM under setting [1], 0.029 µM under setting [2] and 0.0487 µM under setting [3].

Consider “GGGCCAGCCUGUGCUGGGCUUUAGCAUGUACAUGAGGAUCACCCAUGUCGUGUACAUGCUUUUUGCUCGUCUUUAAA [Photon Torp-07] (puzzle: Sensor for hsa-mir-208a)”, for which the “apparent KD of MS2 coat protein” value by setting is: under setting [1], 0.0705 µM; under setting [2], 0.0225 µM; under setting [3], 0.1 µM.

Take “AGGCUCAGACGAGGAUAUAUGUGGUCACAUGAGGAUCACCCAUGUCUCGAGCUUCGGCUCGAGGCAUAGAAGGUGUCUGAGCCA [SSNG2/5-C1] (Eterna round: R96, puzzle: Same State NG 2)”: the “apparent KD of MS2 coat protein” value reads like this: (input ligand: FMN 200 uM) 0.115 µM; under setting [4], 0.0425 µM; (input ligand: none) 0.0257 µM.

Turning to “GUGGUGUAGAUACAGGAUAUGUUGCUCGUAACAUGAGGAUCACCCAUGUAUCUAUGAGAUUAAAUGCAGAAGGGUGCACACCACA [Mat - Same State 2 - Mod of UCT - D72] (puzzle: Same State 2)”, the “apparent KD of MS2 coat protein” value was 0.024 µM under setting [1], 0.46 µM under setting [2] and 0.297 µM under setting [3].

With “UGGUACAUGGGAGGAUAUCCUCAGGAGACAUGAGGAUCACCCAUGUAAUUUAAGCCGAAAGGCAUGGAGAAGGCCCAUGUACCU [JL SSNG1 3.80] (Eterna round: R96, puzzle: Same State NG 2)”, the “apparent KD of MS2 coat protein” value by setting is: (input ligand: FMN 200 uM) 0.0195 µM; under setting [4], 0.0941 µM; (input ligand: none) 0.129 µM.

On to “ACAUGAGACUUAGGAUAUGUUGUACCUACAUGUGACAUGAGGAUCACCCAUGUGGUAAGUAUGAGGCAGAAGGGAGAGAUAUGU [Equivalence 47 - Jieux - Same State NG 2] (Eterna round: R96, puzzle: Same State NG 2)”, for which the “apparent KD of MS2 coat protein” value (input ligand: FMN 200 uM) amounted to 0.0543 µM, the “apparent KD of MS2 coat protein” value under setting [4] was found to be 0.0856 µM and the “apparent KD of MS2 coat protein” value (input ligand: none) stood at 0.0777 µM.

For “AAGUAACAUGAGGAUCACCCAUGUGAGGUGAGCGUAGGAUAUCGAGAAGGAAGGGUGGAGCGAGAAGGACGAGAGG [JR_SS1_Sub0100] (puzzle: Same State 1)”, the “apparent KD of MS2 coat protein” value runs as follows: under setting [1], 0.191 µM; under setting [2], 0.401 µM; under setting [3], 0.27 µM.

With “CUGAGCGAUCAAGGAUAUCACGUCGAUUAGACGUGAGAAGGUGAUCCAUACAUGAGGAUCACCCAUGUAUAACAUGAAGCUCAG [SSNG1/8-A2] (Eterna round: R96, puzzle: Same State NG 1)”, the “apparent KD of MS2 coat protein” value is, setting by setting: (input ligand: FMN 200 uM) 0.414 µM; under setting [4], 0.507 µM; (input ligand: none) 0.861 µM.

“AGUCCAGCGAAAGCUGGACAAAAGCAUGUACAUGAGGAUCACCCAUGUUCAUGUACAAGCUUUUUGCUCGUCUUAAA [Zipper 52 - 13] (puzzle: Sensor for hsa-mir-208a)”: the “apparent KD of MS2 coat protein” value reads like this: under setting [1], 0.486 µM; under setting [2], 0.0162 µM; under setting [3], 0.588 µM.

“UUGAGGUGUCAAGGAUAUGCUACCGUUUCGGUAGCAGAAGGUGAUCACAUGAGGAUCACCCAUGUAUGCAUGCGUGAGCGUGCU [JL SSNG1 3.61] (Eterna round: R96, puzzle: Same State NG 1)”: the “apparent KD of MS2 coat protein” value under setting [4] was determined as 0.0234 µM.

For the sequence “GGAGCCGGCACUGAGGAUAUUCAUAUUAAAACAUGAGGAUCACCCAUGUAGGCCAGAAGGCCUUGGGAGAAGGCAGGUCGACUCG [Diqureveri] (Eterna round: R96, puzzle: Same State 2)”, the “apparent KD of MS2 coat protein” value is, setting by setting: (input ligand: FMN 200 uM) 0.0245 µM; under setting [4], 0.159 µM; (input ligand: none) 0.209 µM.

As for “UUUAAACAUGAGGAUCACCCAUGUUUUUUCAUGGGAGGAUAUCUAAGUUAAUUAUAUUAAGGAGAAGGCCUAUUUU [× ×•×ª×• ×ž×“×™× ×” × ×—×ª-05] (puzzle: Same State 1)”, the “apparent KD of MS2 coat protein” value under setting [1] is 0.111 µM, the “apparent KD of MS2 coat protein” value under setting [2] stood at 0.0488 µM and the “apparent KD of MS2 coat protein” value under setting [3] is 0.0531 µM.

For the sequence “UUAAUUUACUGAGGAUAUCGUGUCGACUGAGUUGACAUGAGGAUCACCCAUGUGAGAAGUGGUAUCGAGAAGGCAGUAUUCAUA [JR_SSNG2_Sub023] (Eterna round: R96, puzzle: Same State NG 2)”, the “apparent KD of MS2 coat protein” value was determined as 0.0161 µM (input ligand: FMN 200 uM), 0.0289 µM under setting [4] and 0.042 µM (input ligand: none).

As for “UUCUGACAUGAGGAUCACCCAUGUGAGACAUAUGGAGAAUCUCAGGAUAUCCUGAGGAUCACCCAGGAGAAGGGAGAUCCGACC (Eterna round: R96, puzzle: Same State NG 3)”, the “apparent KD of MS2 coat protein” value is, setting by setting: (input ligand: FMN 200 uM) 0.032 µM; under setting [4], 0.0437 µM; (input ligand: none) 0.0457 µM.

Take “AGCUAUUAAUCAGGAUAUAGUGACAUGAGGAUCACCCAUGUAUUGAUGAUUAAAUGUGGUCACUACUAGAAGGGAUUACUAACA [SameState NG2 #49] (Eterna round: R96, puzzle: Same State NG 2)”: the “apparent KD of MS2 coat protein” value (input ligand: FMN 200 uM) was found to be 0.037 µM, the “apparent KD of MS2 coat protein” value under setting [4] was found to be 0.0514 µM and the “apparent KD of MS2 coat protein” value (input ligand: none) stood at 0.0671 µM.

As for “GCUCGAUGAACGUCCUACAUGAGGAUCACCCAUGUUCGUGGGCAGGAUAUUUACAUGCAGAGUGUAGAGAAGGGCCCAUCGAGC [SameState NG3 #64] (Eterna round: R96, puzzle: Same State NG 3)”, the “apparent KD of MS2 coat protein” value runs as follows: (input ligand: FMN 200 uM) 0.0678 µM; under setting [4], 0.0746 µM; (input ligand: none) 0.165 µM.

On to “GCCAACUCAUGAGGAUAUGGCACCUUAAUGGUGCCAGAAGGCAUGUCUAUUGACAUGAGGAUCACCCAUGUAUUAUUGUUGGCA [Fiskers NG1ss - 25] (Eterna round: R96, puzzle: Same State NG 1)”, for which the “apparent KD of MS2 coat protein” value (input ligand: FMN 200 uM) was found to be 0.1 µM, the “apparent KD of MS2 coat protein” value under setting [4] worked out at 0.241 µM and the “apparent KD of MS2 coat protein” value (input ligand: none) stood at 0.821 µM.

For “GGAGCCGGUACUGAGGAUAUUCAUAUUAAAACAUGAGGAUCACCCAUGUGGGCCAGAAGGCCUUGGGAGAAGGCAGACCAGCUCG [Atgexeedri - 3] (Eterna round: R96, puzzle: Same State 2)”, the “apparent KD of MS2 coat protein” value by setting is: (input ligand: FMN 200 uM) 0.0182 µM; under setting [4], 0.108 µM; (input ligand: none) 0.156 µM.

For “AAUCGUUUAAUAGGAUAUCGCUAUACAUGAGGAUCACCCAUGUUUACCACGCUGGUUUUUCGUACCGAGAAGGAUUCUGAUGAU [JL JR sub007 mod 8] (Eterna round: R96, puzzle: Same State NG 2)”, the “apparent KD of MS2 coat protein” value worked out at 0.0366 µM (input ligand: FMN 200 uM), 0.0265 µM under setting [4] and 0.0399 µM (input ligand: none).

Consider “CGCCAGAGAGCAGGAUAUGGGCCACGGCCUAAGGGCUGUGGACUCACAUGAGGAUCACCCAUGUCCCAGAAGGGCUCCUGGCUA [Usarbebi] (Eterna round: R96, puzzle: Same State NG 2)”, for which the “apparent KD of MS2 coat protein” value was 0.0181 µM (input ligand: FMN 200 uM), 0.128 µM under setting [4] and 0.174 µM (input ligand: none).

As for “UGGUAACAUGAGGAUCACCCAUGUCAAAUGAAUCGAGGAUAUGGGAAUUAACAACACAAACUAGAAGGCGAAUUUG [Altered State 1-8 - Jieux - Same State 1] (puzzle: Same State 1)”, the “apparent KD of MS2 coat protein” value was 0.293 µM under setting [1], 0.488 µM under setting [2] and 0.18 µM under setting [3].

Regarding “UUUAGUUGCGGGCAGGAUAUGUAUUAAAAUACAUGAGGAUCACCCAUGUGCGGGUAUAACACCCGAUAGAAGGGCCAAUCGCGAC [Laonerce - 11] (puzzle: Same State 2)”, the “apparent KD of MS2 coat protein” value worked out at 0.0209 µM under setting [1], 0.0536 µM under setting [2] and 0.0719 µM under setting [3].

Take “GCUAGUAUUAUUGCUAACAUGAGGAUCACCCAUGUAUGUUGGCAGGAUAUCGUUUGCAAAGCAAACGAGAAGGGCUAAACUAGC [Mat - Same State NG 3 - JL Mod - D13] (Eterna round: R96, puzzle: Same State NG 3)”: the “apparent KD of MS2 coat protein” value worked out at 0.0277 µM (input ligand: FMN 200 uM), 0.0756 µM under setting [4] and 0.0988 µM (input ligand: none).

As for “GCGAUAUGAUGCUACAUGAGGAUCACCCAUGUAGCGACAGCUAAGGAUAUUGGAAAGGGAGGAGACGAGAAGGUAGGGUCACGC [AK SSNG3-V2-24.1] (Eterna round: R96, puzzle: Same State NG 3)”, the “apparent KD of MS2 coat protein” value reads like this: (input ligand: FMN 200 uM) 0.0115 µM; under setting [4], 0.0116 µM; (input ligand: none) 0.0172 µM.

“CGUCCGGCCUGUGCUGGCCGGUGGCUUGUACAUGAGGAUCACCCAUGUUCUUGUGCUGGCGUUUUGCUCGUCUUGUG [salish99_mir208a_r3_020] (puzzle: Sensor for hsa-mir-208a)”: the “apparent KD of MS2 coat protein” value came out at 0.0282 µM under setting [1], 0.0207 µM under setting [2] and 0.0325 µM under setting [3].

In the case of “GUUACAUGAGGAUCACCCAUGUAUGUGUGGGAGUAAGUGUCUUAGGAUAUCUAGUAAUUAAUUUAAGAGAAGGAAGAUUGUUGU [JMF's solution 54] (Eterna round: R96, puzzle: Same State NG 3)”, the “apparent KD of MS2 coat protein” value came to 0.133 µM (input ligand: FMN 200 uM), 0.0935 µM under setting [4] and 0.134 µM (input ligand: none).

Consider “GCUCGUGGUAUUGUCUACAUGAGGAUCACCCAUGUAGGUGCGGAGGAUAUUUACGUGUCUCAUGUAGAGAAGGCCGUCACGAGC [SameState NG3 #97] (Eterna round: R96, puzzle: Same State NG 3)”, for which the “apparent KD of MS2 coat protein” value by setting is: (input ligand: FMN 200 uM) 0.0522 µM; under setting [4], 0.19 µM; (input ligand: none) 0.297 µM.

(Values after the supplement of paper PMC9170038.)
